Entries after “also recorded” stand apart in the source; their conditions may differ. Where a SMILES comes first, the peptide text is derived from it. Bridges are numbered along the chain shown (N, C = ends). Where no end group is shown, it is not given here.

These results are taken from patent publication US6541450B1, “Parathyroid hormone analogues for the treatment of osteoporosis” (National Research Council of Canada, priority 1994, dated 2003).

Series [1] concerns the target T1, adenylyl cyclase, ROS 17/2 cells (Rattus norvegicus, UniProt P25961).
T1 sequence (P25961 27-591): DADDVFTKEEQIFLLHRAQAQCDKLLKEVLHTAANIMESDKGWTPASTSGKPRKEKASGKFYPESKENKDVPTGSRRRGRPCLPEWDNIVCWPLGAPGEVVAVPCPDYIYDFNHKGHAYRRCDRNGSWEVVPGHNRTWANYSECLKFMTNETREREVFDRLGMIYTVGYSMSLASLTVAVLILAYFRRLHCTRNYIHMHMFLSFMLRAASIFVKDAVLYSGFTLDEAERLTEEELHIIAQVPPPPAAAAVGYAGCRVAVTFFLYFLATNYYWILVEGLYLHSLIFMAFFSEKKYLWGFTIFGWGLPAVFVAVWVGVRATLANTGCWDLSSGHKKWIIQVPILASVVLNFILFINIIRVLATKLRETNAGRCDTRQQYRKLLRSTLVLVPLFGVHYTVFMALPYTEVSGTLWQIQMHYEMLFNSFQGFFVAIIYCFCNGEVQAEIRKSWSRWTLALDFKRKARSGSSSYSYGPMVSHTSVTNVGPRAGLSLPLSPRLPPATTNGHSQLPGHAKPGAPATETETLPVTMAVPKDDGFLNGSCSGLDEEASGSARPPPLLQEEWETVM
The series is described as follows: Adenylyl cyclase stimulation, [3H]-cyclic AMP production in ROS 17/2 cells. The format is cell-based. The settings on record: for EC50: ROS 17/2 cells, concentration for half-maximal increase in AC activity, read-out: Adenylyl Cyclase (EC50).

For series [2], the system named is anesthetized female Sprague-Dawley rats. The series is described as follows: Hypotensive effect, tail artery pressure in anaesthetized rats. The conditions noted are these: for time to reduction of tail artery pressure: injection into a femoral vein.
Protocol: Female Sprague-Dawley rats (weighing over 290 g) were anaesthetized with intraperitoneally injected sodium pentobarbital (65 mg/kg body weight). Rectal temperature was monitored with a YS1402 thermistor (Yellow Springs Instrument Co., Inc. Yellow Springs, Ohio) and maintained between 36.0 and 38.5° C. throughout the experiment. Ear pinna temperature was also monitored using a YSi banjo thermistor. The tail artery was exposed to cannulated with a Jelco 25-gIV catheter (Johnson and Johnson Medical Inc., Arlington, Tex.) and connected to a Statham pressure transducer, the signals from which were recorded digitally with a Biopac Systems MP100 Monitor (Harvard Instruments, Saint Laurent, QC, Canada). For intravenous injection of PTH or one of its fragments, a femoral vein was also exposed. After surgery, the rat was allowed to stabilize for 8 min after which PTH or one of its fragments (dissolved in acidified saline containing 0.001 N HCl) was injected into the femoral vein or under the skin of the abdomen. Data were collected for 12 min after intravenous injection or for 22 min after subcutaneous injection.
The test system of series [3] is ovariectomized (OVX) Sprague-Dawley rats. The series is described as follows: Anabolic activity in ovariectomized rat model, injections from 2nd to 8th week after OVX. It is filed as in vivo. The settings on record: subcutaneously injected. The text has this: A full description of the protocol is given in Rixon et al, J. Bone & Mineral Research 9, 1179-1189, 1994 and Whitfield et al Calcif. Tissue Int. 58, 81-87, 1996 incorporated herein by reference. Normal, Sham-OVX (ovariectomized), and OVX Sprague-Dawley rats (3 months-old; 255-260 g) were purchased from
Charles River Laboratories (St. Constant, QC). The rats were randomized into groups of 8 animals which received Purina rat chow and water ad libitum. There were no unscheduled deaths. The animals received 6, once-daily subcutaneous injections/week starting at the end of the second week after OVX, and ending at the end of the 8th week after OVX (i.e., 36 injections). Eight Sham-OVX and 8 OVX controls rats received 36 injections of vehicle (0.15 M NaCl containing 0.001N HCl) while 8 OVX rats received 0.6 nmole of fragment in vehicle/100 g of body weight). At the end of the 8th week after OVX, femurs were removed isolated, cleaned, and cut in half at mid-diaphysis and the proximal half was discarded. After removing the epiphysis, each half-femur was split lengthwise into two parts and the bone marrow was flushed out.
The bone-building potencies of the fragments were assessed from the changes in the mean thicknesses (area/perimeter) of the trabeculae in the distal half-femurs from the variously treated animals. To measure mean trabecular thickness, the two demineralized half-femurs from each rat were dehydrated and embedded in paraffin. Longitudinal, 10-μm sections from the middle plane of each bone were cut and then strained with Sanderson's rapid bone stain (Surgipath Medical Industries, Inc., Winnipeg, MB, Canada). The mean trabecular thickness was measured using a M4 imaging system and bone morphometric software from Imaging Research Inc., (St. Catherines, ON, Canada).
The results are further presented in the form of a bar graph in FIG. 7.

Series [4] deals with T2, PTH receptor (rat (ROS 17/2 rat osteosarcoma cell …, UniProt P25961)). The series is described as follows: cell-based or functional assay.
For series [5], the target named is T2, PTH receptor. The series is described as follows: cell-based or functional assay. This is another data set of the same source.
[6] abbreviates: intravenous, 0.8 nmol/100 g of body weight.

Take `CC[C@H](C)[C@H](NC(=O)[C@H](CCC(=O)O)NC(=O)[C@H](CO)NC(=O)[C@@H](NC(=O)[C@@H](N)CO)C(C)C)C(=O)N[C@@H](CCC(N)=O)C(=O)N[C@@H](CC(C)C)C(=O)N[C@@H](CCSC)C(=O)N[C@@H](Cc1c[nH]cn1)C(=O)N[C@@H](CC(N)=O)C(=O)N[C@@H](CC(C)C)C(=O)NCC(=O)N[C@@H](CCCCN)C(=O)N[C@@H](Cc1c[nH]cn1)C(=O)N[C@@H](CC(C)C)C(=O)N[C@@H](CC(N)=O)C(=O)N[C@@H](CO)C(=O)N[C@@H](CCSC)C(=O)N[C@@H](CCC(=O)O)C(=O)N[C@@H](CCCN=C(N)N)C(=O)N[C@H](C(=O)N[C@H]1CCC(=O)NCCCC[C@@H](C(=O)N[C@@H](CC(C)C)C(=O)N[C@@H](CC(C)C)C(=O)N[C@@H](CCC(N)=O)C(=O)N[C@@H](CC(=O)O)C(N)=O)NC(=O)[C@H](CCCN=C(N)N)NC(=O)[C@H](CC(C)C)NC(=O)[C@H](Cc2c[nH]c3ccccc23)NC1=O)C(C)C` [compound 8, [Leu^27]cyclo(Glu^22Lys^26)-hPTH-(1-30)-NH2] (H-SVSEIQLMHNLGKHLNSMERVEWLRKLLQD-NH2; lactam 22-26): the EC50 in series [1] was determined as 20 nM. Also, the “rate of transport of subcutaneously injected peptide to the vascular system” value in series [2] (subcutaneous, 0.8 nmol/100 g of body weight) is listed as “significantly (p<0.05) reduced rates of transport”.
Consider `CC[C@H](C)[C@H](NC(=O)[C@H](CCC(=O)O)NC(=O)[C@H](CO)NC(=O)[C@@H](NC(=O)[C@@H](N)CO)C(C)C)C(=O)N[C@@H](CCC(N)=O)C(=O)N[C@@H](CC(C)C)C(=O)N[C@@H](CCSC)C(=O)N[C@@H](Cc1c[nH]cn1)C(=O)N[C@@H](CC(N)=O)C(=O)N[C@@H](CC(C)C)C(=O)NCC(=O)N[C@@H](CCCCN)C(=O)N[C@@H](Cc1c[nH]cn1)C(=O)N[C@@H](CC(C)C)C(=O)N[C@@H](CC(N)=O)C(=O)N[C@@H](CO)C(=O)N[C@@H](CCSC)C(=O)N[C@@H](CCC(=O)O)C(=O)N[C@@H](CCCN=C(N)N)C(=O)N[C@H](C(=O)N[C@H]1CCC(=O)NCCCC[C@@H](C(=O)N[C@@H](CC(C)C)C(=O)N[C@@H](CC(C)C)C(=O)N[C@@H](CCC(N)=O)C(=O)N[C@@H](CC(=O)O)C(=O)N[C@H](C(N)=O)C(C)C)NC(=O)[C@H](CCCN=C(N)N)NC(=O)[C@H](CC(C)C)NC(=O)[C@H](Cc2c[nH]c3ccccc23)NC1=O)C(C)C` [peptide 3, [Leu^27]cyclo(Glu^22-Lys^26)-hPTH-(1-31)-NH2] (H-SVSEIQLMHNLGKHLNSMERVEWLRKLLQDV-NH2; lactam 22-26), for which the EC50 in series [1] came out at 3 nM. Besides, the “bioavailability, in words” value in series [2] (subcutaneous, 0.8 nmol/100 g, inferred from time to minimum bp) is recorded as “increased bioavailability”.
As to `CC[C@H](C)[C@H](NC(=O)[C@H](CCC(=O)O)NC(=O)[C@H](CO)NC(=O)[C@@H](NC(=O)[C@@H](N)CO)C(C)C)C(=O)N[C@@H](CCC(N)=O)C(=O)N[C@@H](CC(C)C)C(=O)N[C@@H](CCSC)C(=O)N[C@@H](Cc1c[nH]cn1)C(=O)N[C@@H](CC(N)=O)C(=O)N[C@@H](CC(C)C)C(=O)NCC(=O)N[C@@H](CCCCN)C(=O)N[C@@H](Cc1c[nH]cn1)C(=O)N[C@@H](CC(C)C)C(=O)N[C@@H](CC(N)=O)C(=O)N[C@@H](CO)C(=O)N[C@@H](CCSC)C(=O)N[C@@H](CCC(=O)O)C(=O)N[C@@H](CCCNC(=N)N)C(=O)N[C@H](C(=O)N[C@@H](CCC(=O)O)C(=O)N[C@@H](Cc1c[nH]c2ccccc12)C(=O)N[C@@H](CC(C)C)C(=O)N[C@@H](CCCNC(=N)N)C(=O)N[C@@H](CCCCN)C(=O)N[C@@H](CCCCN)C(=O)N[C@@H](CC(C)C)C(=O)N[C@@H](CCC(N)=O)C(=O)N[C@@H](CC(=O)O)C(N)=O)C(C)C` [peptide 6, hPTH-(1-30)-NH2] (H-SVSEIQLMHNLGKHLNSMERVEWLRKKLQD-NH2), in series [1], the “AC-stimulating activity, comparison in words” value was “stimulates AC almost as strongly as hPTH-(1-31)-NH and hPTH-(1-34)”. The “osteogenic activity, in words” value in series [3] is “does not stimulate bone formation”. Also, the “time to reduction of tail artery pressure” value in series [2] is “about 1 minute”. The figures for the “hypotensive action, in words” value in series [2] (intravenous injection) and in series [2] (subcutaneous injection) were “potently hypotensive” and “reduces blood pressure as much as hPTH-(1-31)-NH2”, respectively. Moreover, the “time for tail artery pressure to fall to its minimum” value in series [2] (subcutaneous injection) came out at 13.8 ± 2.3 min. The “total blood pressure drop versus other analogues” value in series [2] (subcutaneously or intravenously, 0.8 nmol/100 g of body weight) was “not significantly different (p>0.05)”.

B1: cyclo(Lys^27-Asp^30)-hPTH-(1-31)-NH2 (peptide)
peptide: SVSEIQLMHNLGKHLNSMERVEWLRKKLQDV-NH2
modifications: lactam 27-30
B1: the “adenylyl cyclase stimulation, EC50” value with PTH receptor [4] turned out to be 40.3 nM. In the series with PTH receptor [5], the “Adenylyl Cyclase (EC50)” value was 40 nM.

B2: [Leu^27]cyclo(Lys^26-Asp^30)-hPTH-(1-31)-NH2 (peptide)
peptide: SVSEIQLMHNLGKHLNSMERVEWLRKLLQDV-NH2
modifications: lactam 26-30; N-terminus assumed
SMILES: CC[C@H](C)[C@H](NC(=O)[C@H](CCC(=O)O)NC(=O)[C@H](CO)NC(=O)[C@@H](NC(=O)[C@@H](N)CO)C(C)C)C(=O)N[C@@H](CCC(N)=O)C(=O)N[C@@H](CC(C)C)C(=O)N[C@@H](CCSC)C(=O)N[C@@H](Cc1c[nH]cn1)C(=O)N[C@@H](CC(N)=O)C(=O)N[C@@H](CC(C)C)C(=O)NCC(=O)N[C@@H](CCCCN)C(=O)N[C@@H](Cc1c[nH]cn1)C(=O)N[C@@H](CC(C)C)C(=O)N[C@@H](CC(N)=O)C(=O)N[C@@H](CO)C(=O)N[C@@H](CCSC)C(=O)N[C@@H](CCC(=O)O)C(=O)N[C@@H](CCCNC(=N)N)C(=O)N[C@H](C(=O)N[C@@H](CCC(=O)O)C(=O)N[C@@H](Cc1c[nH]c2ccccc12)C(=O)N[C@@H](CC(C)C)C(=O)N[C@@H](CCCNC(=N)N)C(=O)N[C@H]1CCCCNC(=O)C[C@@H](C(=O)N[C@H](C(N)=O)C(C)C)NC(=O)[C@H](CCC(N)=O)NC(=O)[C@H](CC(C)C)NC(=O)[C@H](CC(C)C)NC1=O)C(C)C
For the molecule B2, the “adenylyl cyclase stimulation, EC50” value with PTH receptor [4] was found to be 17 nM.

B3: [Leu^27]cyclo(Glu^22-Lys^26)-hPTH-(1-31)-NH2 (peptide)
peptide: SVSEIQLMHNLGKHLNSMERVEWLRKLLQDV-NH2
modifications: lactam 22-26; N-terminus assumed
SMILES: CC[C@H](C)[C@H](NC(=O)[C@H](CCC(=O)O)NC(=O)[C@H](CO)NC(=O)[C@@H](NC(=O)[C@@H](N)CO)C(C)C)C(=O)N[C@@H](CCC(N)=O)C(=O)N[C@@H](CC(C)C)C(=O)N[C@@H](CCSC)C(=O)N[C@@H](Cc1c[nH]cn1)C(=O)N[C@@H](CC(N)=O)C(=O)N[C@@H](CC(C)C)C(=O)NCC(=O)N[C@@H](CCCCN)C(=O)N[C@@H](Cc1c[nH]cn1)C(=O)N[C@@H](CC(C)C)C(=O)N[C@@H](CC(N)=O)C(=O)N[C@@H](CO)C(=O)N[C@@H](CCSC)C(=O)N[C@@H](CCC(=O)O)C(=O)N[C@@H](CCCNC(=N)N)C(=O)N[C@H](C(=O)N[C@H]1CCC(=O)NCCCC[C@@H](C(=O)N[C@@H](CC(C)C)C(=O)N[C@@H](CC(C)C)C(=O)N[C@@H](CCC(N)=O)C(=O)N[C@@H](CC(=O)O)C(=O)N[C@H](C(N)=O)C(C)C)NC(=O)[C@H](CCCNC(=N)N)NC(=O)[C@H](CC(C)C)NC(=O)[C@H](Cc2c[nH]c3ccccc23)NC1=O)C(C)C
Regarding B3, the “AC-stimulating activity, EC50” value with PTH receptor [4] turned out to be 3.3 nM. For the same molecule, the “Adenylyl Cyclase (EC50)” value with PTH receptor [5] came to 3 nM.

B4: [Leu^27]-hPTH-(1-31)-NH2 (peptide)
peptide: SVSEIQLMHNLGKHLNSMERVEWLRKLLQDV-NH2
Regarding B4, the “AC activity in the ROS cell line, EC50” value with PTH receptor [4] was found to be 11.5 nM.

B5: hPTH-(1-84) (protein, UniProt P01270 32-115, looked up)
Parathyroid hormone: SVSEIQLMHNLGKHLNSMERVEWLRKKLQDVHNFVALGAPLAPRDAGSQRPRKKEDNVLVESHEKSLGEADKADVNVLTKAKSQ
modifications: Parathyroid hormone
notes: full-length human parathyroid hormone, AC/PLC-stimulating
As to B5, the “osteogenic activity, in words” value in series [3] is “equally osteogenic; also recorded: strongly osteogenic”. For the same molecule, the “time to reduction of tail artery pressure” value in series [2] is on record as “about 1 minute”. For the same molecule, in series [2] (intravenous injection), the “hypotensive action, in words” value is reported as “no significant difference”. In addition, in series [2] (setting [6]), the “reduction of tail artery pressure” value was 43.2±5.8 mm Hg and the “time to maximum drop in tail artery pressure” value amounted to 0.9 ± 0.08 min. The “time for tail artery pressure to fall to its minimum” value in series [2] (subcutaneous injection) is on record as “needs the same amount of time to reduce the blood pressure”.

Broadly, the EC50 is the concentration giving half of the maximal effect.
